Reference: paper PMC10641233, “The C-terminal domain of the antiamyloid chaperone DNAJB6 binds to amyloid-β peptide fibrils and inhibits secondary nucleation” (The Journal of Biological Chemistry, 2023)

B1: C-terminal domain (CTD) of DNAJB6, WT sequence (residues 186–242 plus a starting Met) (domain or fragment)
chain: MGNFKSISTSTKMVNGRKITTKRIVENGQERVEVEEDGQLKSLTINGKEQLLRLDNK
notes: starting Met added before residue 186; numbers count on: full-length DNAJB6; also called WT CTD

How the values were obtained:
[1] = molecular target: Aβ42 fibrils (amyloid-β peptide Aβ(M1-42), fibrillar form); assay: SPR; Aβ42 fibrils immobilised, construct injected (CTD at 2, 5 and 10 μM); 20 mM sodium phosphate, 0.2 mM EDTA, pH 8.0, 0.005% Tween-20
[2] = molecular target: Aβ42 fibrils (amyloid-β peptide Aβ(M1-42), fibrillar form)
[3] = molecular target: S100G-CTDβ1–2 (β-strands 1 and 2 of the DNAJB6 CTD, residues 187–212, grafted between the two EF-hands of human S100G) (UniProt O75190); assay: cross-linking; 10 μM construct, BS3 amine-reactive crosslinker, 20 mM sodium phosphate, 0.2 mM EDTA (pH 8.0), SDS-PAGE with integration of band intensities and LC-MS/MS of excised bands; dimer to monomers; KD are lower bounds
[4] = molecular target: S100G-CTDβ1–2STA (ST/A-substituted variant of S100G-CTDβ1–2) (UniProt O75190); assay: as above
[5] = molecular target: S100G-CTDβ1–4 (four β-strands of the DNAJB6 CTD, residues 187–231, grafted between the two EF-hands of human S100G) (UniProt O75190); assay: as above
[6] = molecular target: S100G-CTDβ1–4STA (ST/A-substituted variant of S100G-CTDβ1–4) (UniProt O75190); assay: as above
[7] = molecular target: the molecule itself; assay: native MS; equimolar mixture of CTD and CTD STA ionised from 200 mM ammonium acetate, pH 6.8, source temperature 25 °C, gentle ionisation; also nonmixed samples (Fig. S3)
[8] = molecular target: the molecule itself; assay: cross-linking; 10 μM construct, BS3 amine-reactive crosslinker, 20 mM sodium phosphate, 0.2 mM EDTA (pH 8.0), SDS-PAGE with integration of band intensities and LC-MS/MS of excised bands; tetramer to dimers; KD is a lower bound
[9] = molecular target: the molecule itself; assay: cross-linking; 10 μM construct, BS3 amine-reactive crosslinker, 20 mM sodium phosphate, 0.2 mM EDTA (pH 8.0), SDS-PAGE with integration of band intensities and LC-MS/MS of excised bands; dimer to monomers; KD are lower bounds
[10] = molecular target: B1; assay: native MS; equimolar mixture of CTD and CTD STA ionised from 200 mM ammonium acetate, pH 6.8, source temperature 25 °C, gentle ionisation; also nonmixed samples (Fig. S3); conditions: both partners purified

Molecule: C-terminal domain (CTD) of DNAJB6, WT sequence (residues 186–242 plus a starting Met) (from UniProt O75190-2 186-241) (domain or fragment)
- Ka [1]: 100000 M⁻¹
- ThT fluorescence, reaction half time t1/2 of the aggregation of 3 μM Aβ42, CTD:Aβ42 M ratios from 0.05:1 to 1:1 [2]: 10 fold

Molecule: S100G-CTDβ1–2 (β-strands 1 and 2 of the DNAJB6 CTD, residues 187–212, grafted between the two EF-hands of human S100G) (from UniProt O75190-2 187-212)
- Kd [3]: > 60 µM
- Ka [1]: 300000 M⁻¹

Molecule: S100G-CTDβ1–2STA (ST/A-substituted variant of S100G-CTDβ1–2) (from UniProt O75190-2 187-212)
- Kd [4]: > 1000 µM

Molecule: S100G-CTDβ1–4 (four β-strands of the DNAJB6 CTD, residues 187–231, grafted between the two EF-hands of human S100G) (from UniProt O75190-2 187-231)
- Kd [5]: > 500 µM
- Ka [1]: 1e+07 M⁻¹

Molecule: S100G-CTDβ1–4STA (ST/A-substituted variant of S100G-CTDβ1–4) (from UniProt O75190-2 187-231)
- Kd [6]: > 1000 µM

Molecule: B1
- stoichiometry N [7]: 2
- Kd [8]: ≥ 2 µM
- stoichiometry N [8]: 4
- Kd [9]: ≥ 30 µM

B2: CTD STA (CTD with S190A + S192A + T193A + S194A + T195A in β1) (domain or fragment)
chain: MGNFKAIAAAAKMVNGRKITTKRIVENGQERVEVEEDGQLKSLTINGKEQLLRLDNK
notes: starting Met added before residue 186; numbers count on: full-length DNAJB6; also called S/T-A-substituted variant
- stoichiometry N [7]: 2
- binding result [10]: binds
- Kd [9]: ≥ 600 µM
